Data on 5 molecules can be found in paper PMC10681713, “RAD51 paralogs synergize with RAD51 to protect reversed forks from cellular nucleases” (Nucleic Acids Research, 2023).

The target of data set [1] is Flag-RAD51C (of the BCDX2 complex) (human) (UniProt O43502). Kind of data set: native MS; purified BCDX2 in 500 mM ammonium acetate pH 7.5; low activation energy for the intact complex, in-source trapping (-50 to -250 V) to dissociate it.
Data set [2] concerns the target T1, BCDX2 (RAD51B-RAD51C-RAD51D-XRCC2) (Homo sapiens, UniProt O15315;O43502;O75771;O43543 1-384;1-376;1-328;1-280).
T1 sequence 1: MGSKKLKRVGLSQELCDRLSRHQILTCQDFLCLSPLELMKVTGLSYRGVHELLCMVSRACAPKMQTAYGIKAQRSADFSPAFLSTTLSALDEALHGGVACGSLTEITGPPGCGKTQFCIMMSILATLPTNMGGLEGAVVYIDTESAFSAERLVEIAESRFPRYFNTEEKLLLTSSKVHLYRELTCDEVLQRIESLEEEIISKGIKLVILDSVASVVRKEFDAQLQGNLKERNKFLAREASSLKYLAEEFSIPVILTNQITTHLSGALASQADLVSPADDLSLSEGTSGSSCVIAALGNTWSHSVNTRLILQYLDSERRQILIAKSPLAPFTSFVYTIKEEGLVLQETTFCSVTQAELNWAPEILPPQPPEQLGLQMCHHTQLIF
T1 sequence 2: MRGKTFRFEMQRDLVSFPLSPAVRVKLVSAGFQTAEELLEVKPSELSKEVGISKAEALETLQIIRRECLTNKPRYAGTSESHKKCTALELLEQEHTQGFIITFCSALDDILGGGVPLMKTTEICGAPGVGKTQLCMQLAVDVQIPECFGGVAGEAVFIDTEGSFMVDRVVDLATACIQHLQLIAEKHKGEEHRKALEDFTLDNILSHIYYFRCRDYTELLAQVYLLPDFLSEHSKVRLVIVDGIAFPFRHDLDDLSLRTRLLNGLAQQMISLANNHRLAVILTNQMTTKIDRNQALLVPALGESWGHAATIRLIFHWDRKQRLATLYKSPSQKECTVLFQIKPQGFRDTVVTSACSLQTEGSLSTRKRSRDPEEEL
T1 sequence 3: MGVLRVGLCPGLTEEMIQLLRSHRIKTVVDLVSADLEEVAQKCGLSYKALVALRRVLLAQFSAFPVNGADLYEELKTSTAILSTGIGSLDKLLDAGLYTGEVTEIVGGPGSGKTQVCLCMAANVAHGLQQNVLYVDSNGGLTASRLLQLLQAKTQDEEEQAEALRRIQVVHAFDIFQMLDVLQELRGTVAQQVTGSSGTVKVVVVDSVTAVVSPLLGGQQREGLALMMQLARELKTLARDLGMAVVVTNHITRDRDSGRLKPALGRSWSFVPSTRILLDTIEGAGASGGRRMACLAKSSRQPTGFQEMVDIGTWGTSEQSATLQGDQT
T1 sequence 4: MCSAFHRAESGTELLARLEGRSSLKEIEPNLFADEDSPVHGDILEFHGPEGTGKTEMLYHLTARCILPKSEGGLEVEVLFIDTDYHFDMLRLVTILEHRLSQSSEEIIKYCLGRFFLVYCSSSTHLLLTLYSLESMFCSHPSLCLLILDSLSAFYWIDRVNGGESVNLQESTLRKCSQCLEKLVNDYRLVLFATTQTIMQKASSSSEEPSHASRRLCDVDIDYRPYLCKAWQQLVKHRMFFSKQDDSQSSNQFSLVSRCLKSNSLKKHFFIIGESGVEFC
In words: EMSA; 1 mM ATP, 58 nM DNA; Buffer E (composition not in the material), 37 °C, 10 min; paralogs: 50 mM KCl, 1 mM ATP, 0.8% agarose gel; RAD51: 100 mM KCl, 2 mM ATP, 6% TBE-PAGE. The note with it: protein: recombinant, tags: N-terminal Flag on RAD51C, N-terminal His6 on XRCC2, TEV sites, copies: 1;1;1;1. Background: In EMSA bound probe runs differently from free probe, usually more slowly.

In the next data set the target is T2, CX3 (RAD51C-XRCC3) (Homo sapiens, UniProt O43502;O43542 1-376;1-346).
T2 sequence 1: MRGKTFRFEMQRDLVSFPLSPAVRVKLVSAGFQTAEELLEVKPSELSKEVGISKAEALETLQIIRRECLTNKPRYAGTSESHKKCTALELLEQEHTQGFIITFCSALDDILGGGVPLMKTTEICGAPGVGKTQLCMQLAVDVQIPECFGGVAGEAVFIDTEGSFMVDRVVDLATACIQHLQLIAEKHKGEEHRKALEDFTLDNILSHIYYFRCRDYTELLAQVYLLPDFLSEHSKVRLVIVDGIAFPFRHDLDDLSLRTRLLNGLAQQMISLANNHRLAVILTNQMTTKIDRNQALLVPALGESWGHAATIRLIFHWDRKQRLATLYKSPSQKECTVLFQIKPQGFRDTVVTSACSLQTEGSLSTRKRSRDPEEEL
T2 sequence 2: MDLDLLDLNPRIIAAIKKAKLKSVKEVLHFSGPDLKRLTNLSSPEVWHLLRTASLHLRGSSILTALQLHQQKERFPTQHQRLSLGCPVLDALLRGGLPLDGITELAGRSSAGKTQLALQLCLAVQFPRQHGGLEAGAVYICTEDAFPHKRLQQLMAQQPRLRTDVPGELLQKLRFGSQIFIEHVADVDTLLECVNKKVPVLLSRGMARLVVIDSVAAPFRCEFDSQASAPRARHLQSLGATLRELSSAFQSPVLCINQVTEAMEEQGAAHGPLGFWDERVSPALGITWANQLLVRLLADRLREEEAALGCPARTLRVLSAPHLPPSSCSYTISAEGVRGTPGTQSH
Described as above. As to conditions: protein: recombinant, tags: N-terminal His6-Flag on RAD51C, copies: 1;1, 25 bp duplex.

For data set [3], the target named is T3, His6-XRCC2 (of the BCDX2 complex) (human, UniProt O43543 1-280).
T3 construct: human XRCC2, cDNA; a TEV cutting site stands between the tag and the gene; No TEV cleavage is described in the purification; source: Expi293F cells, transfected, co-expressed from pcDNA3.4-tetrad-BCDX2; purified as part of the complex (Ni-NTA, anti-Flag M2 agarose, Superdex 200); not shown: His6, N-terminal, kept
T3 sequence (looked up): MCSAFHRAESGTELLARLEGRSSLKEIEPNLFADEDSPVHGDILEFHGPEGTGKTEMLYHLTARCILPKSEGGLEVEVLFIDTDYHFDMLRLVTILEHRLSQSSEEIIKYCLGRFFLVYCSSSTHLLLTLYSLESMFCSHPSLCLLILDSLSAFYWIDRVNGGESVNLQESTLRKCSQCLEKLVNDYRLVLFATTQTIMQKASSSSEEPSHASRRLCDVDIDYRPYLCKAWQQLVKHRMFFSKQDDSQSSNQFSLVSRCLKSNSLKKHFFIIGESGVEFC
In words: native MS; purified BCDX2 in 500 mM ammonium acetate pH 7.5; low activation energy for the intact complex, in-source trapping (-50 to -250 V) to dissociate it. As to conditions: both partners purified.

For the molecule “RAD51B (from UniProt O15315 1-384) (natural protein)”, the stoichiometry N (usually a count of units in the complex or per binding partner) in data set [1] amounted to 1.

B1: dsDNA 55 bp (oligo 13 + oligo 14) (dsDNA)
DNA 1: TTAGAGCTTAATTGCTGAATCTGGTGCTGTGGGTGAACCTGCAGGTGGGCAAAGA
DNA 2: TCTTTGCCCACCTGCAGGTTCACCCACAGCACCAGATTCAGCAATTAAGCTCTAA
For B1, the binding result in data set [2] (label: 5' Cy3 on oligo 13, blunt) is “no binding”.

B2: 5' overhang DNA (oligo 7 + oligo 8) (mixed)
DNA 1: GGGTGAACCTGCAGGTGGGCAAAGA
DNA 2: ACGCTGCCGAATTCTACCAGTGCCTTGCTAGGACATCTTTGCCCACCTGCAGGTTCACCC
modifications: oligo 8: phosphorothioate bonds at both ends (first 5 and last 5 linkages)
Regarding B2, the binding result in data set [2] (label: 5' Cy3 on oligo 7, 25 bp duplex, 5' overhang 35 nt on strand 2) is listed as “binds”; with CX3 (RAD51C-XRCC3) (label: 5' Cy3 on oligo 7, 5' overhang 35 nt on strand 2), “binds”.

B3: 3' overhang DNA (oligo 9 + oligo 8) (mixed)
DNA 1: AGGCACTGGTAGAATTCGGCAGCGT
DNA 2: ACGCTGCCGAATTCTACCAGTGCCTTGCTAGGACATCTTTGCCCACCTGCAGGTTCACCC
modifications: oligo 8: phosphorothioate bonds at both ends (first 5 and last 5 linkages)
Turning to B3, the binding result in data set [2] (label: 3' Cy3 on oligo 9, 25 bp duplex, 3' overhang 35 nt on strand 2) was “binds”; with CX3 (RAD51C-XRCC3) (label: 3' Cy3 on oligo 9, 3' overhang 35 nt on strand 2), “binds”.

B4: RAD51D (natural protein, human, UniProt O75771 1-328, looked up)
chain: MGVLRVGLCPGLTEEMIQLLRSHRIKTVVDLVSADLEEVAQKCGLSYKALVALRRVLLAQFSAFPVNGADLYEELKTSTAILSTGIGSLDKLLDAGLYTGEVTEIVGGPGSGKTQVCLCMAANVAHGLQQNVLYVDSNGGLTASRLLQLLQAKTQDEEEQAEALRRIQVVHAFDIFQMLDVLQELRGTVAQQVTGSSGTVKVVVVDSVTAVVSPLLGGQQREGLALMMQLARELKTLARDLGMAVVVTNHITRDRDSGRLKPALGRSWSFVPSTRILLDTIEGAGASGGRRMACLAKSSRQPTGFQEMVDIGTWGTSEQSATLQGDQT
notes: No tag is described on this chain; also called D (in BCDX2 and DX2); source: Expi293F cells, transfected, co-expressed with the other paralogs from one plasmid; purified as part of the complex (Ni-NTA, anti-Flag M2 agarose, Superdex 200)
Regarding B4, the “stoichiometry N” value in data set [3] is 1.
